For the series, the target named is T1, melanopsin (mOPN4-Flag), on Per2:ELuc:TK:Mel cells (mouse) (UniProt Q9QXZ9).
T1 sequence: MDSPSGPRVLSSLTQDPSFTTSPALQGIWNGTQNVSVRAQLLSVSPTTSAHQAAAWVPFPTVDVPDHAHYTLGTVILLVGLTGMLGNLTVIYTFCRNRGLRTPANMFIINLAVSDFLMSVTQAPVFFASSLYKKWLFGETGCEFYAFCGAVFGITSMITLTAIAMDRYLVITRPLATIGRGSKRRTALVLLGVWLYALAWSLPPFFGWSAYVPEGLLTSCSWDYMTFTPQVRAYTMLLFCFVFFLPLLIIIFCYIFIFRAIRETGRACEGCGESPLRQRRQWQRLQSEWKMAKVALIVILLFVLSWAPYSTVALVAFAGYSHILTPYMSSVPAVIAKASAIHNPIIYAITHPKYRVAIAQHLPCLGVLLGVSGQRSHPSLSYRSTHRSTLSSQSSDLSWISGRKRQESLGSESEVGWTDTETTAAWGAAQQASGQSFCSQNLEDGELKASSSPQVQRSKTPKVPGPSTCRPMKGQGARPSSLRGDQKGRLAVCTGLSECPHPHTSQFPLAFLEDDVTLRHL
The series is described as follows: cell binding fluorescence (microplate), EC50. Particulars: 6-FAM-Melapt (1.405-90 ug/mL) added to adherent cells in DMEM, 15 min, washed, fluorescence 495/517 nm, n=3, cells cultured at 37 C, 5% CO2, binding pH and ….

Consider 3 sequences from paper PMC11062245.

In the case of “AAAGGGGAATTCGGATCCCCGCACACGTGGAGCCAAGTCGAGTTTAATTCCCTATCGCCTGCAGAAGCTTCCGTTT [6-FAM-Melapt04]”, the K half was found to be 5.62 µg/mL.

As for “AAAGGGGAATTCGGATCCCGACCCGAAGGAGCGGTGGATAACCCCACCAAGATACGTCCTGCAGAAGCTTCCGTTT [6-FAM-Melapt01]”, the K half worked out at 11.2 µg/mL.

As for “AAAGGGGAATTCGGATCCTTCACCGATACGGCTCCCTTGGCCAGACAGGAAAAAATAACTGCAGAAGCTTCCGTTT [6-FAM-Melapt08]”, for the setting “Results text gives 22.5 ug/mL, not saturated at 90 ug/mL”, the K half was 45 µg/mL.
